According to patent US20060234282A1 (NATIONAL RESEARCH COUNCIL OF CANADA, published 2006):

T1: rat galanin receptor-2 (GAL-R2) (rat, UniProt O08726 1-372)
T1 construct: Full 372 amino acid open reading frame expressed from pCDNA3/GALR-2 in HEK293 cells; cAMP assays used whole cells; also called rat GAL-R2; RGALR2.PRO
T1 sequence: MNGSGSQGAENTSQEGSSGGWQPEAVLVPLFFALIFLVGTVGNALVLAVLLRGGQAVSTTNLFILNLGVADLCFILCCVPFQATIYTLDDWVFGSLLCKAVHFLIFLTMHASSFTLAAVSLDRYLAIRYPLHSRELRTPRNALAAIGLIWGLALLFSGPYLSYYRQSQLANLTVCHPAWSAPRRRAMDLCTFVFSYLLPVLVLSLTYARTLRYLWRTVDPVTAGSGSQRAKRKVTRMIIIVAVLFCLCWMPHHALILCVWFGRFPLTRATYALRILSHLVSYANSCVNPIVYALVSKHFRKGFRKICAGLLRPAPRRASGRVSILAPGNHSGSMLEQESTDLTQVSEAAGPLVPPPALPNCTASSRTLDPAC


Target: T1, rat galanin receptor-2 (GAL-R2)
Assay: displacement of ^125I-galanin, membranes of HEK293 cells expressing rat GAL-R2
Protocol: Binding reactions proceeded for 20 min at room temperature and were stopped by filtration through Unifilters-96, GF/B filters (Canberra Packard), using the 96-well Filtermate 196 filtration system from Canberra Packard. Filters were washed 5 times with 0.5 ml of ice cold 20 mM HEPES pH 7.5. The filters were dried at 55° C. for one hour and then 100 μl of μScint-20 (Canberra Packard) was added per well. Filters were counted with the Topcount microplate counter from Canberra Packard.

Ki | binding result | Molecule
8.3 nM | – | M40 (peptide)
– | no binding | RPKPQQFFGLM (peptide, UniProt P20366 58-68, looked up, Galanin-unrelated control ligand) [substance P]
– | no binding | HSDAVFTDNYTRLRKQMAVKKYLNSILN (peptide, UniProt P01282 125-152, looked up, Galanin-unrelated control ligand) [vasoactive intestinal polypeptide]
